Results taken from patent US20120321699A1.
Each block holds one substance with its values, some of them ahead of it.

Columns and labels:
[1] = biological target: gp120 (Table 2, strain not given) (HIV-1); test: Luminex bead assay
HIV-1 Env gp41 (HIV-1) = test: Luminex bead assay
[2] = biological target: Env of HIV-1 Q23.17.N160K (HIV-1); test: cell-based or functional assay
[3] = biological target: Env of HIV-1 clade B isolate JRFL (virus) (HIV-1); test: cell-based or functional assay
[4] = biological target: Env of HIV-1 JRFL.E168K (HIV-1); test: cell-based or functional assay
[5] = biological target: Env of HIV-1 clade B isolate 7165.18 (HIV-1); test: cell-based or functional assay
[6] = biological target: Env of HIV-1 JRCSF.N160K (HIV-1) (UniProt P20871); test: cell-based or functional assay
[7] = biological target: Env of HIV-1 7165.18.N160K (HIV-1); test: cell-based or functional assay
[8] = biological target: Env of HIV-1 JRFL.N160K.E168K (HIV-1); test: cell-based or functional assay
[9] = biological target: Env of HIV-1 clade A isolate Q23.17 (HIV-1); test: cell-based or functional assay
CM 243 gp120 (HIV-1) = test: ELISA on monomeric envelope
[10] = biological target: HV00046 (902114 B2 140C) (HIV-1); test: ELISA on monomeric envelope
Sm autoantigen [11] = test: Athena assay, mAb 50 ug/ml; positive >50
centromere B autoantigen [12] = test: Athena assay, mAb 50 ug/ml; positive >50
Jo 1 autoantigen [13] = test: Athena assay, mAb 50 ug/ml; positive >50
Scl 70 autoantigen [14] = test: Athena assay, mAb 50 ug/ml; positive >50
SSB autoantigen [15] = test: Athena assay, mAb 50 ug/ml; positive >50
Histone autoantigen [16] = test: Athena assay, mAb 50 ug/ml; positive >50
RNP autoantigen [17] = test: Athena assay, mAb 50 ug/ml; positive >50
SSA autoantigen [18] = test: Athena assay, mAb 50 ug/ml; positive >50
Sm autoantigen [19] = test: Athena assay, mAb 25 ug/ml; positive >50
centromere B autoantigen [20] = test: Athena assay, mAb 25 ug/ml; positive >50
Jo 1 autoantigen [21] = test: Athena assay, mAb 25 ug/ml; positive >50
Scl 70 autoantigen [22] = test: Athena assay, mAb 25 ug/ml; positive >50
SSB autoantigen [23] = test: Athena assay, mAb 25 ug/ml; positive >50
Histone autoantigen [24] = test: Athena assay, mAb 25 ug/ml; positive >50
RNP autoantigen [25] = test: Athena assay, mAb 25 ug/ml; positive >50
SSA autoantigen [26] = test: Athena assay, mAb 25 ug/ml; positive >50
Sm autoantigen [27] = test: Athena assay, mAb 12.5 ug/ml; positive >50
centromere B autoantigen [28] = test: Athena assay, mAb 12.5 ug/ml; positive >50
Jo 1 autoantigen [29] = test: Athena assay, mAb 12.5 ug/ml; positive >50
Scl 70 autoantigen [30] = test: Athena assay, mAb 12.5 ug/ml; positive >50
SSB autoantigen [31] = test: Athena assay, mAb 12.5 ug/ml; positive >50
Histone autoantigen [32] = test: Athena assay, mAb 12.5 ug/ml; positive >50
RNP autoantigen [33] = test: Athena assay, mAb 12.5 ug/ml; positive >50
SSA autoantigen [34] = test: Athena assay, mAb 12.5 ug/ml; positive >50
[35] = biological target: Influenza HA (Wisconsin) (influenza virus); test: Luminex assay, antibody 50 µg/ml
Sm autoantigen [36] = test: Athena assay, mAb 6.25 ug/ml; positive >50
centromere B autoantigen [37] = test: Athena assay, mAb 6.25 ug/ml; positive >50
Jo 1 autoantigen [38] = test: Athena assay, mAb 6.25 ug/ml; positive >50
Scl 70 autoantigen [39] = test: Athena assay, mAb 6.25 ug/ml; positive >50
SSB autoantigen [40] = test: Athena assay, mAb 6.25 ug/ml; positive >50
Histone autoantigen [41] = test: Athena assay, mAb 6.25 ug/ml; positive >50
RNP autoantigen [42] = test: Athena assay, mAb 6.25 ug/ml; positive >50
SSA autoantigen [43] = test: Athena assay, mAb 6.25 ug/ml; positive >50
A244 gD- gp120 (HIV-1) = test: SPR
[44] = biological target: Env of HIV-1 clade B isolate JR-CSF (HIV-1) (UniProt P20871); test: cell-based or functional assay
HCV E2 (HCV) = test: Luminex assay, antibody 50 µg/ml
[45] = biological target: HV00043 (63521 TC21 140C) (HIV-1); test: SPR
[46] = biological target: HV00044 (6240 TZ5 140C) (HIV-1); test: SPR
[47] = biological target: A244gD+ gp120 (herpes simplex virus; HIV-1); test: SPR

Reactivity in Luminex Units (Luminex Units) [1]: 5110
Substance: 1b12 original (antibody)

Substance: 2F5 (antibody)
Reactivity in Luminex Units (Luminex Units) [1]: 9240
Reactivity in Luminex Units (Luminex Units) (HIV-1 Env gp41 (HIV-1)): 32700

Reactivity in Luminex Units (Luminex Units) (HIV-1 Env gp41 (HIV-1)): 1430
Substance: 17b original CCR5 binding site antibody

Substance: CH01 (antibody)
IC50 ug/ml (virus neutralization) [2]: > 50 µg/mL
IC80 ug/ml (virus neutralization) [2]: > 50 µg/mL
IC50 ug/ml (virus neutralization) [3]: > 50 µg/mL
IC80 ug/ml (virus neutralization) [3]: > 50 µg/mL
IC50 ug/ml (virus neutralization) [4]: 0.044 µg/mL
IC80 ug/ml (virus neutralization) [4]: 0.382 µg/mL
IC50 ug/ml (virus neutralization) [5]: 5.82 µg/mL
IC80 ug/ml (virus neutralization) [5]: > 50 µg/mL
IC50 ug/ml (virus neutralization) [6]: > 50 µg/mL
IC80 ug/ml (virus neutralization) [6]: > 50 µg/mL
IC50 ug/ml (virus neutralization) [7]: > 50 µg/mL
IC80 ug/ml (virus neutralization) [7]: > 50 µg/mL
IC50 ug/ml (virus neutralization) [8]: > 50 µg/mL
IC80 ug/ml (virus neutralization) [8]: > 50 µg/mL
IC50 ug/ml (virus neutralization) [9]: 0.014 µg/mL
IC80 ug/ml (virus neutralization) [9]: 0.035 µg/mL
EC50 (CM 243 gp120 (HIV-1)): 12700 nM
EC50 [10]: 63200 nM
Autoreactivity (Athena) (Sm autoantigen [11]): 4
Autoreactivity (Athena) (centromere B autoantigen [12]): 22
Autoreactivity (Athena) (Jo 1 autoantigen [13]): 3.5
Autoreactivity (Athena) (Scl 70 autoantigen [14]): 4
Autoreactivity (Athena) (SSB autoantigen [15]): 5.5
Autoreactivity (Athena) (Histone autoantigen [16]): 26
Autoreactivity (Athena) (RNP autoantigen [17]): 8
Autoreactivity (Athena) (SSA autoantigen [18]): 8
Autoreactivity (Athena) (Sm autoantigen [19]): 4
Autoreactivity (Athena) (centromere B autoantigen [20]): 14
Autoreactivity (Athena) (Jo 1 autoantigen [21]): 2.5
Autoreactivity (Athena) (Scl 70 autoantigen [22]): 3
Autoreactivity (Athena) (SSB autoantigen [23]): 5.5
Autoreactivity (Athena) (Histone autoantigen [24]): 17.5
Autoreactivity (Athena) (RNP autoantigen [25]): 5.5
Autoreactivity (Athena) (SSA autoantigen [26]): 6.5
Autoreactivity (Athena) (Sm autoantigen [27]): 3
Autoreactivity (Athena) (centromere B autoantigen [28]): 10
Autoreactivity (Athena) (Jo 1 autoantigen [29]): 2
Autoreactivity (Athena) (Scl 70 autoantigen [30]): 2
Autoreactivity (Athena) (SSB autoantigen [31]): 5
Autoreactivity (Athena) (Histone autoantigen [32]): 13.5
Autoreactivity (Athena) (RNP autoantigen [33]): 4.5
Autoreactivity (Athena) (SSA autoantigen [34]): 5
background substracted RFUs [35]: 0 RFU
Autoreactivity (Athena) (Sm autoantigen [36]): 2.5
Autoreactivity (Athena) (centromere B autoantigen [37]): 7
Autoreactivity (Athena) (Jo 1 autoantigen [38]): 2
Autoreactivity (Athena) (Scl 70 autoantigen [39]): 1.5
Autoreactivity (Athena) (SSB autoantigen [40]): 5.5
Autoreactivity (Athena) (Histone autoantigen [41]): 10
Autoreactivity (Athena) (RNP autoantigen [42]): 4
Autoreactivity (Athena) (SSA autoantigen [43]): 5.5
Kd (A244 gD- gp120 (HIV-1)): 340 nM

Substance: PG9 (antibody)
IC50 ug/ml (virus neutralization) [2]: > 50 µg/mL
IC80 ug/ml (virus neutralization) [2]: > 50 µg/mL
IC50 ug/ml (virus neutralization) [3]: > 50 µg/mL
IC80 ug/ml (virus neutralization) [3]: > 50 µg/mL
IC50 ug/ml (virus neutralization) [4]: 0.008 µg/mL
IC80 ug/ml (virus neutralization) [4]: 0.055 µg/mL
IC50 ug/ml (virus neutralization) [5]: > 50 µg/mL
IC80 ug/ml (virus neutralization) [5]: > 50 µg/mL
IC50 ug/ml (virus neutralization) [6]: > 50 µg/mL
IC80 ug/ml (virus neutralization) [6]: > 50 µg/mL
IC50 ug/ml (virus neutralization) [7]: > 50 µg/mL
IC80 ug/ml (virus neutralization) [7]: > 50 µg/mL
IC50 ug/ml (virus neutralization) [8]: > 50 µg/mL
IC80 ug/ml (virus neutralization) [8]: > 50 µg/mL
IC50 ug/ml (virus neutralization) [9]: 0.002 µg/mL
IC80 ug/ml (virus neutralization) [9]: 0.005 µg/mL
IC50 ug/ml (virus neutralization) [44]: 0.003 µg/mL
IC80 ug/ml (virus neutralization) [44]: 0.008 µg/mL
Autoreactivity (Athena) (Sm autoantigen [11]): 2
Autoreactivity (Athena) (centromere B autoantigen [12]): 5
Autoreactivity (Athena) (Jo 1 autoantigen [13]): 1
Autoreactivity (Athena) (Scl 70 autoantigen [14]): 2
Autoreactivity (Athena) (SSB autoantigen [15]): 5
Autoreactivity (Athena) (Histone autoantigen [16]): 7
Autoreactivity (Athena) (RNP autoantigen [17]): 3
Autoreactivity (Athena) (SSA autoantigen [18]): 5
Autoreactivity (Athena) (Sm autoantigen [19]): 3
Autoreactivity (Athena) (centromere B autoantigen [20]): 5
Autoreactivity (Athena) (Jo 1 autoantigen [21]): 2
Autoreactivity (Athena) (Scl 70 autoantigen [22]): 1
Autoreactivity (Athena) (SSB autoantigen [23]): 6
Autoreactivity (Athena) (Histone autoantigen [24]): 9
Autoreactivity (Athena) (RNP autoantigen [25]): 2
Autoreactivity (Athena) (SSA autoantigen [26]): 5
Autoreactivity (Athena) (Sm autoantigen [27]): 3
Autoreactivity (Athena) (centromere B autoantigen [28]): 4
Autoreactivity (Athena) (Jo 1 autoantigen [29]): 2
Autoreactivity (Athena) (Scl 70 autoantigen [30]): 2
Autoreactivity (Athena) (SSB autoantigen [31]): 4
Autoreactivity (Athena) (Histone autoantigen [32]): 6
Autoreactivity (Athena) (RNP autoantigen [33]): 2
Autoreactivity (Athena) (SSA autoantigen [34]): 5
background substracted RFUs (HCV E2 (HCV)): 0 RFU
background substracted RFUs [35]: 0 RFU
Autoreactivity (Athena) (Sm autoantigen [36]): 2
Autoreactivity (Athena) (centromere B autoantigen [37]): 4
Autoreactivity (Athena) (Jo 1 autoantigen [38]): 2
Autoreactivity (Athena) (Scl 70 autoantigen [39]): 2
Autoreactivity (Athena) (SSB autoantigen [40]): 4
Autoreactivity (Athena) (Histone autoantigen [41]): 5
Autoreactivity (Athena) (RNP autoantigen [42]): 3
Autoreactivity (Athena) (SSA autoantigen [43]): 4
Kd [45]: 0.75 nM
Kd [46]: 210 nM
Kd [47]: 4.8 nM

Substance: PG16 (antibody)
IC50 ug/ml (virus neutralization) [2]: > 50 µg/mL
IC80 ug/ml (virus neutralization) [2]: > 50 µg/mL
IC50 ug/ml (virus neutralization) [3]: > 50 µg/mL
IC80 ug/ml (virus neutralization) [3]: > 50 µg/mL
IC50 ug/ml (virus neutralization) [4]: 0.003 µg/mL
IC80 ug/ml (virus neutralization) [4]: 0.015 µg/mL
IC50 ug/ml (virus neutralization) [5]: 11.8 µg/mL
IC80 ug/ml (virus neutralization) [5]: > 50 µg/mL
IC50 ug/ml (virus neutralization) [6]: > 50 µg/mL
IC80 ug/ml (virus neutralization) [6]: > 50 µg/mL
IC50 ug/ml (virus neutralization) [7]: > 50 µg/mL
IC80 ug/ml (virus neutralization) [7]: > 50 µg/mL
IC50 ug/ml (virus neutralization) [8]: > 50 µg/mL
IC80 ug/ml (virus neutralization) [8]: > 50 µg/mL
IC50 ug/ml (virus neutralization) [9]: 0.001 µg/mL
IC80 ug/ml (virus neutralization) [9]: 0.003 µg/mL
IC50 ug/ml (virus neutralization) [44]: 0.003 µg/mL
IC80 ug/ml (virus neutralization) [44]: 0.012 µg/mL
Autoreactivity (Athena) (Sm autoantigen [11]): 0
Autoreactivity (Athena) (centromere B autoantigen [12]): 3
Autoreactivity (Athena) (Jo 1 autoantigen [13]): 0
Autoreactivity (Athena) (Scl 70 autoantigen [14]): 1
Autoreactivity (Athena) (SSB autoantigen [15]): 2
Autoreactivity (Athena) (Histone autoantigen [16]): 2
Autoreactivity (Athena) (RNP autoantigen [17]): 2
Autoreactivity (Athena) (SSA autoantigen [18]): 4
Autoreactivity (Athena) (Sm autoantigen [27]): 2
Autoreactivity (Athena) (centromere B autoantigen [28]): 4
Autoreactivity (Athena) (Jo 1 autoantigen [29]): 1
Autoreactivity (Athena) (Scl 70 autoantigen [30]): 1
Autoreactivity (Athena) (SSB autoantigen [31]): 4
Autoreactivity (Athena) (Histone autoantigen [32]): 8
Autoreactivity (Athena) (RNP autoantigen [33]): 3
Autoreactivity (Athena) (SSA autoantigen [34]): 4
background substracted RFUs (HCV E2 (HCV)): 0 RFU
background substracted RFUs [35]: 0 RFU
Autoreactivity (Athena) (Sm autoantigen [36]): 2
Autoreactivity (Athena) (centromere B autoantigen [37]): 5
Autoreactivity (Athena) (Jo 1 autoantigen [38]): 2
Autoreactivity (Athena) (Scl 70 autoantigen [39]): 2
Autoreactivity (Athena) (SSB autoantigen [40]): 5
Autoreactivity (Athena) (Histone autoantigen [41]): 8
Autoreactivity (Athena) (RNP autoantigen [42]): 2
Autoreactivity (Athena) (SSA autoantigen [43]): 5
Kd [45]: 160 nM
Kd [46]: 110 nM
Kd [47]: 450 nM
